Results taken from patent US20240360436A1.

T1: TIGIT antigen (UniProt Q495A1)
T1 sequence (looked up): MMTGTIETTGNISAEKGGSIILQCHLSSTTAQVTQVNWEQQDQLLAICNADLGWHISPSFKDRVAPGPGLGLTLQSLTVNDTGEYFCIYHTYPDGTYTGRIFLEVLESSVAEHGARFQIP

B1: TT385 (Fab, part only; not given: Tiragolumab light chain, V domains shown, part only)
VH: EVQLVESGPEVKKPGTSVKVSCKASGLTFSRSAVQWLRQARGQRLEWIGWVDVASSNTNYAQKFQERVTITRDMSTSTAYMELSNLRTEDTAVYYCAADLYGFWGVQGFDPWGQGTMVTVSS
B2: TT357 (Fab, part only; not given: Tiragolumab light chain, V domains shown, part only)
VH: QVQLVQSGGGLVQPGGSLRLSCAASGFTFSRYWMTWVRQAPGKGLEWVANTNQDGSETYYVDSVKGRFTISRDNAKNSLYLQMNSLRAEDTAVYYCARRWSGYHDGSGYDYFDYWDQGTLVTVSS
B3: TT321 (Fab, part only; not given: Tiragolumab light chain, V domains shown, part only)
VH: EVQLVESGGGLVQPGGSLRLSCAASGFTFNMYAMSWVRQGPGKGLEWVSTISGGAGSTYYADSVKGRFTISRDNSKNTVYLQMNSLRAEDTAVYYCASEVVAATTLDYWGQGTTVTVSS

What follows are binders tested against T1, TIGIT antigen (assay: ELISA on TIGIT antigen, OD405).
B1 showed an ELISA OD405 Reading of 0.474 OD405. In the case of B2, the ELISA OD405 Reading is reported as 0.471 OD405. With B3 the ELISA OD405 Reading was 0.547 OD405.
